Source: patent US20020192214A1 (published 2002)

T1: human eosinophil eotaxin receptor CC CKR3, stably expressed in AML14.3D10 cells (human, UniProt P51677 1-355)
T1 construct: Full-length cDNA in pBJ/NEO transfected into the AML14.3D10 eosinophilic line; also called AML14/CCCKR3.16
T1 sequence: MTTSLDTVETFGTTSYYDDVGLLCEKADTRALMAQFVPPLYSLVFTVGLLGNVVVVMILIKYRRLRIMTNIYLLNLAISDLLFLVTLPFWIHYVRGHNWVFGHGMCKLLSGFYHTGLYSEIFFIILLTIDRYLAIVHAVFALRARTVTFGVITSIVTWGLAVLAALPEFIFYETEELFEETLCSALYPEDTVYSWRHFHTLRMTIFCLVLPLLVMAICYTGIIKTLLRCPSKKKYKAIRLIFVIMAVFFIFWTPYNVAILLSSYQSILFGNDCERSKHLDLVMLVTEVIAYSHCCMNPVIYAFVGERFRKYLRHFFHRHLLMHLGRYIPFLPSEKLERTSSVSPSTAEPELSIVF

T2: endogenous eosinophil eotaxin receptor (CC CKR3) on primary human eosinophils (human, UniProt P51677 1-355)
T2 construct: The target as printed is 'eosinophils' (primary cells from allergic and asthmatic donors); It also says eosinophils express a much lower level of CC CKR1; also called primary eosinophils
T2 sequence: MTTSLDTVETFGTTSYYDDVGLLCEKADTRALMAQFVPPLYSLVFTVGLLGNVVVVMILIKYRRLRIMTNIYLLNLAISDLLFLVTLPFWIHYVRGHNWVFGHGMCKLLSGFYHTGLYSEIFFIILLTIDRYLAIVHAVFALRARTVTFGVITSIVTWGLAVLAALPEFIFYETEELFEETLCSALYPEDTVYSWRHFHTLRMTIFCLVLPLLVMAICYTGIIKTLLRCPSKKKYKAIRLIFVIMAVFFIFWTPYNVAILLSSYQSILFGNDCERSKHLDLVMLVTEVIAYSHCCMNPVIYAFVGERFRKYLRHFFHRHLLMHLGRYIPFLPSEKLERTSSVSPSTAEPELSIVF


Tests used:
[1] = biological target: T1, human eosinophil eotaxin receptor CC …; test: competition against 125I-human eotaxin on AML14.3D10 cells expressing CC CKR3
Method: (§1) Results with murine eotaxin were essentially identical. […] Clearly, CC CKR3 is a high affinity receptor for eotaxin.
(§2) Competition binding experiments were carried out against the indicated iodinated ligand as follows and as described herein. Equilibrium binding of β-chemokines to AML14.3D10 cells expressing CC CKR3 and to primary eosinophils was examined with increasing concentrations of unlabelled human eotaxin, murine eotaxin, RANTES, MCP-3, or MCP-1 to compete against fixed concentrations of either ¹²⁵I-human eotaxin, or ¹²⁵I-MCP-3. Also the competition with 100 nM concentrations of MIP-1α, and MIP-1β was examined. The experiments were carried out either with AML14.3D10 cells expressing CC CKR3, or with eosinophils. All values are the averages of triplicate determinations. Typically, 4000-6000 cpm of iodinated ligand was bound in the absence of compeititor with S/N ratios exceeding 15. Human and murine eotaxin are the human and murine chemokines, respectively. “N.B.” means that no competition was observed. All results are the averages of the number of experiments shown in parenthesis.

[2] = biological target: T1, human eosinophil eotaxin receptor CC …; test: cell-based or functional assay
[3] = biological target: T2, endogenous eosinophil eotaxin receptor …; test: competition against 125I-human eotaxin on primary eosinophils
Method: (§3) To provide additional pharmacological evidence, binding studies were conducted on primary eosinophils. […] The number of binding sites varied by less than 2-fold for the 3 donors used in the studies. […] Similarly, the Kd's obtained by competition against ¹²⁵I-MCP-3 on eosinophils are effectively indistinguishable to those measured against cloned CC CKR3 (see Table 1). All of the observations and measurements, taken together with the Western blot showing expression of CC CKR3, verify that CC CKR3 is the eosinophil eotaxin receptor, and appears to be largely responsible for mediating the effects of most β-chemokines on eosinophils.
Competition binding experiments were carried out against the indicated iodinated ligand as follows and as described herein. Equilibrium binding of β-chemokines to AML14.3D10 cells expressing CC CKR3 and to primary eosinophils was examined with increasing concentrations of unlabelled human eotaxin, murine eotaxin, RANTES, MCP-3, or MCP-1 to compete against fixed concentrations of either ¹²⁵I-human eotaxin, or ¹²⁵I-MCP-3. Also the competition with 100 nM concentrations of MIP-1α, and MIP-1β was examined. The experiments were carried out either with AML14.3D10 cells expressing CC CKR3, or with eosinophils. All values are the averages of triplicate determinations. […]

[4] = biological target: T2, endogenous eosinophil eotaxin receptor …; test: competition against 125I-human eotaxin, primary eosinophils
Method: as §3, §2

[5] = biological target: T2, endogenous eosinophil eotaxin receptor …; test: competition against 125I-MCP-3, primary eosinophils
Method: as §3, §2

[6] = biological target: T1, human eosinophil eotaxin receptor CC …; test: competition against 125I-MCP-3, intact AML14.3D10 cells expressing CC CKR3
Method: Competition studies were also carried out against ¹²⁵I-MCP-3. […] Thus despite some small quantitative differences the overall ligand selectivity of the receptor is the same whether measured by competition against eotaxin or MCP-3, and the order of potency, eotaxin>MCP-3=RANTES>>MCP-1, is identical.
as §2

[7] = biological target: T1, human eosinophil eotaxin receptor CC …; test: competition against 125I-human eotaxin, intact AML14.3D10 cells expressing CC CKR3
Method: as §1, §2

Binder	binding result [1]	Ca^2+-flux (intracellular Ca^2+ levels) [2]	binding result [3]	Kd [4]	Kd [5]	Kd [6]	Kd [7]
MIP-1α (ligand, UniProt P10147 24-92, looked up, also called macrophage inflammatory protein 1α) SLAADTPTACCFSYTSRQIPQNFIADYFETSSQCSKPGVIFLTKRSRQVCADPSEEWVQKYVSDLELSA	no binding (tested: 100 nM)	> 1 µM	no binding (tested: 100 nM)	–	–	–	–
MIP-1β (ligand, UniProt P13236 24-92, looked up, also called macrophage inflammatory protein 1β) APMGSDPPTACCFSYTARKLPRNFVVDYYETSSLCSQPAVVFQTKRSKQVCADPSESWVQEYVYDLELN	no binding (tested: 100 nM)	> 1 µM	no binding (tested: 100 nM)	–	–	–	–
MCP-3 (ligand) not shown	–	–	–	3 nM	1.1 nM	0.7 nM	2.7 nM
RANTES (ligand, UniProt P13501 24-91, looked up) SPYSSDTTPCCFAYIARPLPRAHIKEYFYTSGKCSNPAVVFVTRKNRQVCANPEKKWVREYINSLEMS	–	–	–	2.6 nM	0.9 nM	0.5 nM	3.1 nM
human eotaxin (ligand) not shown	–	–	–	0.1 nM	0.2 nM	0.2 nM	0.1 nM
murine eotaxin (ligand, UniProt P48298 24-97, looked up) HPGSIPTSCCFIMTSKKIPNTLLKSYKRITNNRCTLKAIVFKTRLGKEICADPKKKWVQDATKHLDQKLQTPKP	–	–	–	0.1 nM	0.2 nM	0.3 nM	0.1 nM
